Experimental data reported in US20100240066A1 (MCGILL UNIVERSITY, published 2010).
Where no end group is shown, it is not given here.

T1: N-cadherin/Fc chimeric protein (human, UniProt P19022 160-724)
T1 construct: range 160-724; Bought from R&D Systems; also called N-cad/Fc; human N-cadherin/Fc chimeric protein; not shown: Fc region of human IgG1
T1 sequence (looked up): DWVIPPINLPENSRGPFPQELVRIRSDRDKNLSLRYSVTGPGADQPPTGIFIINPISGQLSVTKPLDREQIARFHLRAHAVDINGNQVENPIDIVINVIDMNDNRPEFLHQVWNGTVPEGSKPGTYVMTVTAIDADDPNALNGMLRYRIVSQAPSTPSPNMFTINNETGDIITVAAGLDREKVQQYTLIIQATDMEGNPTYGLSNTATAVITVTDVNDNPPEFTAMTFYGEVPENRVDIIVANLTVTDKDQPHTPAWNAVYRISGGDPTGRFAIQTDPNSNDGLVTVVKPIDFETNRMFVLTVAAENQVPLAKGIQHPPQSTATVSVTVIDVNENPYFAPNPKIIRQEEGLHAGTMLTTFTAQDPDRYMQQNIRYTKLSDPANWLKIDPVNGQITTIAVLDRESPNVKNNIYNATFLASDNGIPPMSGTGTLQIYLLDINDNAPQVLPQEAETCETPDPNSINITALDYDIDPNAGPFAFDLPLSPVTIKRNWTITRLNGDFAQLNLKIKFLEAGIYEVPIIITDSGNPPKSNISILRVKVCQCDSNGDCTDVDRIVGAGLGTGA

T2: VE-cadherin/Fc chimeric protein (UniProt P33151 48-593)
T2 construct: Bought from R&D Systems; also called vascular endothelial (VE)-cadherin/Fc chimeric protein; not shown: Fc part not described
T2 sequence (looked up): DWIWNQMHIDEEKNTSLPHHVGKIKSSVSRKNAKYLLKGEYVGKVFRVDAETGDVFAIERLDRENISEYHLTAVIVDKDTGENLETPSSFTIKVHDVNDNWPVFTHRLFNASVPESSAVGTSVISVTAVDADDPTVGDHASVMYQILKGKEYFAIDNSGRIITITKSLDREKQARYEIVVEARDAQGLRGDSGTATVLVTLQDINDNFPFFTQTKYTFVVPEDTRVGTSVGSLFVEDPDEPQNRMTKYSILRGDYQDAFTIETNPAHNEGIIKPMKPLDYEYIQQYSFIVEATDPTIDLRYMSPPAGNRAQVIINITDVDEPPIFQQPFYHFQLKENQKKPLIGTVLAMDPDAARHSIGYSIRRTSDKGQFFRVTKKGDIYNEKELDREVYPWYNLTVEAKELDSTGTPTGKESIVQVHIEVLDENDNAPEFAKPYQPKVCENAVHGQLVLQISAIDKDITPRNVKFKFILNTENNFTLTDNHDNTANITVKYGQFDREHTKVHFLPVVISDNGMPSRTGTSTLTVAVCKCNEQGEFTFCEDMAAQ

T3: E-cadherin/Fc chimeric protein (human, UniProt P12830 155-707)
T3 construct: range 155-707; Bought from R&D Systems; also called E-cad/Fc; human E-cadherin/Fc chimeric protein; not shown: Fc region of human IgG1
T3 sequence (looked up): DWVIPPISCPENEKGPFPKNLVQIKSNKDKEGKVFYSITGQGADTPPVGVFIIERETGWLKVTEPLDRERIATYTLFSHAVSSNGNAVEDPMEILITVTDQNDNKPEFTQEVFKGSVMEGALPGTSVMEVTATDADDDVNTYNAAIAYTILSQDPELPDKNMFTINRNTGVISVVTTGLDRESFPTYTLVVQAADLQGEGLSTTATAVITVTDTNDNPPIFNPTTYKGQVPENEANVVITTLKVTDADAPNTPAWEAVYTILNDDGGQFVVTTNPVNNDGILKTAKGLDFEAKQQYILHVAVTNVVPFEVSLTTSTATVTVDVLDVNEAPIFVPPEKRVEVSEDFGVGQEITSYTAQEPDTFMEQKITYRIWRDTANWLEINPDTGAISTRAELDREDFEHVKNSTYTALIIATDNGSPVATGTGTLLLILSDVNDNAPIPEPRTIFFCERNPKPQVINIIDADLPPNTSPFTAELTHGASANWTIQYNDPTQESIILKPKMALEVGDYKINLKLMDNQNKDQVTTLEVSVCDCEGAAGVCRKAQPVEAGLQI

B1: phage clone NoCa1 (peptide)
peptide: WYVCVGAHC
modifications: not fully specified; cysteine pairing not given here; also: displayed on M13 phage pIII
notes: whole phage in the assay
B2: phage clone NoCa11 (peptide)
peptide: WQVCVGAHC
modifications: not fully specified; cysteine pairing not given here; also: displayed on M13 phage pIII
notes: whole phage in the assay

Key:
[1] = molecular target: T1, N-cadherin/Fc chimeric protein; test: summary table, column Peptide Binds to N-cad/Fc; assay not named
[2] = molecular target: T2, VE-cadherin/Fc chimeric protein; test: surface plasmon resonance (Biacore), chimera captured by anti-human IgG
Procedure: The binding of representative peptide modulating agents to either N- or VE-cadherin/Fc chimeric proteins was assessed using a BIAcore X™ Biosensor (Pharmacia Ltd., Sweden). Goat anti-human IgG recognizing N- and VE-cadherin/Fc chimeric proteins (R&D Systems, Minneapolis, Minn.) was immobilized on a CM5 sensor chip (Biacore S51) using standard amine-coupling method at 25° C. HBS-P buffer (10 mM HEPES, 0.15 M NaCl, 0.005% p20, pH 7.4) was used as the running buffer. The carboxymethyl dextran surface was activated with a 7 min injection of a 1:1 ratio of 0.4 M EDC and 0.1 M NHS. The goat anti-human IgG (Caltag Lab.) was coupled to the surface with a 7 min injection diluted in 10 mM sodium acetate, pH 5.0 to a final concentration 80 ug/ml. Remaining activated groups were blocked with a 7 min injection of 1 M ethanolamine, pH 8.5. N- and VE-cadherin/Fc chimeric proteins were dissolved in buffer containing 50 mM Tris HCl, 150 mM NaCl, and 1.2 mM CaCl₂ pH 7.5 to a concentration of 0.2 μM and captured on spots 1 and 2 at a flow rate of 30 μl/min for 30 min with resulting density 927 RU for N-cadherin/Fc chimeric protein and 1008 RU for VE-cadherin/Fc chimeric protein. […]
(§1) The binding of the linear peptide H-[…]-NH₂ (SEQ ID NO: 16) to N- and VE-cadherin/Fc chimeric proteins was analyzed by surface plasma resonance.

[3] = molecular target: T1, N-cadherin/Fc chimeric protein; test: phage ELISA, 1.2 mM calcium
Procedure: (§2) The binding of each clone to the cadherin/Fc chimeric proteins was confirmed by ELISA. Wells of ProBind microtiter plates (Falcon) were coated with either N-cadherin/Fc or E-cadherin/Fc chimeric protein (100 ng/well) or human IgG1 (which contains the Fc fragment) (100 ng/well). After blocking the nonspecific sites with TBS containing 3% BSA and 1.2 mM CaCl₂ for 1 h at 37° C., phage clones (10⁹ pfu) diluted in TBST containing 3% BSA and 1.2 mM CaCl₂ (100 μl/well). Non-coated wells were also used to exclude any phage that bound to the plastic surface. After 1 h incubation at room temperature, wells were washed 3 times with TBST containing 3% BSA and 1.2 mM CaCl₂. M13 phage without any insert were used to control the non-specific binding of the phage itself to the target. Monoclonal anti-M13 antibody conjugated to horseradish peroxidase (Amersham Biosciences, Piscataway, N.J.) was diluted in TBST containing 3% BSA and 1.2 mM CaCl₂ (1:2,000) and added to each well (100 μl/well). After 1 h incubation at room temperature, wells were washed three times with TBST containing 3% BSA and 1.2 mM CaCl₂ and once with TBS containing 1.2 mM CaCl₂. Horseradish peroxidase substrate, TMB (Sigma), was added to each well (100 μl/well and after color development the reaction was stopped by addition of 100 μl 0.5 M sulphuric acid to each well. The intensity of the color was measured at 450 nm.
An ELISA was performed in the presence of either 1.2 mM calcium or 2 mM EDTA. […] The signal obtained in the presence of EDTA was lower than in the presence of calcium.

[4] = molecular target: T3, E-cadherin/Fc chimeric protein; test: phage ELISA
Procedure: (§3) The phage clones shown to bind to the N-cadherin/Fc chimeric protein by ELISA were also evaluated for their ability to bind to E-cadherin/Fc and VE-cadherin/Fc chimeric proteins. The phage clones shown to bind to the E-cadherin/Fc chimeric protein by ELISA were also evaluated for their ability to bind to N-cadherin/Fc and VE-cadherin/Fc chimeric proteins. The same ELISA protocol described in the previous section was used to perform this evaluation with the exception that the wells were coated with either 100 ng N-cadherin/Fc, E-cadherin/Fc or VE-cadherin/Fc chimeric protein (R&D Systems, Minneapolis, Minn.).

[5] = molecular target: T2, VE-cadherin/Fc chimeric protein; test: phage ELISA
Procedure: as §3

[6] = molecular target: T1, N-cadherin/Fc chimeric protein; test: surface plasmon resonance (Biacore), N-cadherin/Fc captured by anti-human IgG, peptide as analyte, 1.2 mM CaCl2, 25 C
Procedure: The binding of representative peptide modulating agents to either N- or VE-cadherin/Fc chimeric proteins was assessed using a BIAcore X™ Biosensor (Pharmacia Ltd., Sweden). Goat anti-human IgG recognizing N- and VE-cadherin/Fc chimeric proteins (R&D Systems, Minneapolis, Minn.) was immobilized on a CM5 sensor chip (Biacore S51) using standard amine-coupling method at 25° C. HBS-P buffer (10 mM HEPES, 0.15 M NaCl, 0.005% p20, pH 7.4) was used as the running buffer. The carboxymethyl dextran surface was activated with a 7 min injection of a 1:1 ratio of 0.4 M EDC and 0.1 M NHS. The goat anti-human IgG (Caltag Lab.) was coupled to the surface with a 7 min injection diluted in 10 mM sodium acetate, pH 5.0 to a final concentration 80 ug/ml. Remaining activated groups were blocked with a 7 min injection of 1 M ethanolamine, pH 8.5. N- and VE-cadherin/Fc chimeric proteins were dissolved in buffer containing 50 mM Tris HCl, 150 mM NaCl, and 1.2 mM CaCl₂ pH 7.5 to a concentration of 0.2 μM and captured on spots 1 and 2 at a flow rate of 30 μl/min for 30 min with resulting density 927 RU for N-cadherin/Fc chimeric protein and 1008 RU for VE-cadherin/Fc chimeric protein.
The linear peptide H-[…]-NH₂ (SEQ ID NO: 16) and the control linear peptide H-[…]-NH₂ (SEQ ID NO: 58) were passed over surfaces coated with captured N- and VE-cadherin/Fc chimeric proteins in running buffer containing 50 mM Tris-HCl, 150 mM NaCl, and 1.2 mM CaCl₂, pH 7.5 at concentrations ranging from 100-1.56 uM. The experiment was performed at a flow rate 90 ul/min at 25° C. […] All responses were referenced for reference surface and blank injections of running buffer.
as §1

[7] = molecular target: T3, E-cadherin/Fc chimeric protein; test: summary table, column Peptide Binds to E-cad/Fc; assay not named
[8] = molecular target: T1, N-cadherin/Fc chimeric protein; test: phage ELISA, 1.2 mM calcium; remark: listed apart in the source
Procedure: as §2

[9] = molecular target: T3, E-cadherin/Fc chimeric protein; test: phage ELISA, in the absence or presence of calcium
Procedure: as §3

[10] = molecular target: T2, VE-cadherin/Fc chimeric protein; test: phage ELISA, in the absence or presence of calcium
Procedure: as §3

Binder	binding result [3]	binding result [4]	binding result [5]	also measured
H-SRTLYTPSGQSK-NH2 [H-SRTLYTPSGQSK-NH2]				binding result [1]: no binding; binding result [2]: no binding (tested: 100-1.56 uM)
KWELTYFANSFP (whole phage in the assay) [phage clone Nc 12-a3]	binds	no binding (tested: 10^9 pfu)	no binding (tested: 10^9 pfu)	
EWMIHYDSALTS (not fully specified, whole phage in the assay) [phage clone Nc 12-a6]	binds	binds	no binding (tested: 10^9 pfu)	
NWFIDFPVYPPL (whole phage in the assay) [phage clone Nc 12-a1]	binds	no binding (tested: 10^9 pfu)	no binding (tested: 10^9 pfu)	
SWLAVWPATGAS (whole phage in the assay) [phage clone Nc 12-a10]	binds	binds	no binding (tested: 10^9 pfu)	
H-SWTLYTPSGQSK-NH2 (Synthetic linear peptide) [H-SWTLYTPSGQSK-NH2]				Kd [6]: 66 µM; koff [6]: 0.407 s⁻¹; kon [6]: 6100 M⁻¹ s⁻¹; binding result [7]: no binding; binding result [2]: no binding (tested: 100-1.56 uM)
AWQVHYSYVASS (whole phage in the assay) [phage clone Nc 12-a7]	binds	binds	no binding (tested: 10^9 pfu)	
B1				binding result [8]: binds; binding result [9]: no binding (tested: 10^9 pfu); binding result [10]: no binding (tested: 10^9 pfu)
B2				binding result [8]: binds; binding result [9]: no binding (tested: 10^9 pfu); binding result [10]: no binding (tested: 10^9 pfu)
